Numbering of substitutions follows the chain as printed. In names and notes the source's numbering stands. Each block holds one binder with its values, some of them ahead of it.
How the values were obtained:
[1] = target: T1, human Notch2 on U-87 MG cells (human, UniProt Q04721 26-2471); test: cell-based or functional assay
[2] = target: T2, huNotch2-EGF6-10 (human, UniProt Q04721 219-418); test: SPR BIAcore T200, antibody captured on protein A, 37 C
T2 construct: also called human Notch2 EGF6-10
T2 sequence: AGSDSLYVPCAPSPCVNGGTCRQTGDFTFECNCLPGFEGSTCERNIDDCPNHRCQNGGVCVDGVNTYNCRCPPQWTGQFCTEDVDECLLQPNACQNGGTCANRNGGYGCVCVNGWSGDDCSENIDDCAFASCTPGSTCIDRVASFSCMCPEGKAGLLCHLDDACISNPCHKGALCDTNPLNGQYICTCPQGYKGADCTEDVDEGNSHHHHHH
Protocol: The binding affinities of the antibodies was determined by BIAcore™ T200 machine. Rabbit antibodies were expressed as chimeric antibodies with rabbit variable domains and human constant domains. Rat antibodies were expressed as chimeric antibodies with rat variable domains and human constant regions. Humanized antibodies were expressed in the human IgG1 backbone. For kinetics measurements, antibodies were captured on research grade protein A chip (GE Healthcare) to achieve approximately 300 RU. Ten-fold serial dilutions of huNotch2-EGF6-10 were injected in HBS-P buffer with additional 3 mM CaCl₂ at 37° C. with a flow rate of 100 μL/min. Association rates (ka) and dissociation rates (kd) were calculated using a 1:1 Langmuir binding model (BIAcore™ T200 Evaluation Software version 2.0). The equilibrium dissociation constant (KD) was calculated as the ratio kd/ka.

[3] = target: T1, human Notch2 on U-87 MG cells; test: KinExA equilibrium whole-cell analysis on Notch2-expressing U-87 cells
Protocol: After incubation, the cells were centrifuged and the supernatants, containing the free fraction of antibody or Fab construct, were removed without disturbing the cell pellets and transferred onto a KinExA 3200 instrument with autosampler (Sapidyne Instruments Inc). Each supernatant was flowed over a solid phase composed of polystyrene beads (#440176, Sapidyne Instruments Inc) coated with biotinylated goat anti-human Immunoglobulin G (IgG) heavy+light (H+L) (#109-065-003, Jackson ImmunoResearch Laboratories Inc.) or biotinylated Notch2 extracellular domain to capture the free antibody or Fab construct. […] The fluorescent signals were recorded and converted to a voltage signal that is directly proportional to the amount of free antibody or Fab construct in the equilibrated sample. Using the built in Equilibrium Whole Cell analysis method, the KinExA Pro software performed a least squares analysis on the measured data to fit optimal solutions for the KD and the activity of the free antibody or Fab construct to a curve representative of a 1:1 reversible bi-molecular interaction. […] A N-curve analysis was applied for the testing of the two concentrations of antibody or Fab construct to determine the KD on Notch2-expressing U-87 cells.
The binding kinetics were determined using a similar assay format as the one used for the equilibrium analysis, with the exception that measurements were collected “pre-equilibrium” and the binding signals were plotted as a function of time. For the KinExA direct method, anti-Notch2 antibody and Fab formats were incubated with Notch2-expressing U-87 cells at a fixed concentration (Table 12) and aliquots of the cell binding solution were collected at different time points to determine the fraction of free antibody or Fab format. The KinExA Pro software was then used to determine the association rate constant (Kₒₙ).

[4] = target: T1, human Notch2 on U-87 MG cells; test: cell-based or functional assay; remark: listed apart in the source
[5] = target: T3, huNotch2-EGF4-7 (human); test: SPR BIAcore, antibody captured on protein A, 37 C
T3 chain: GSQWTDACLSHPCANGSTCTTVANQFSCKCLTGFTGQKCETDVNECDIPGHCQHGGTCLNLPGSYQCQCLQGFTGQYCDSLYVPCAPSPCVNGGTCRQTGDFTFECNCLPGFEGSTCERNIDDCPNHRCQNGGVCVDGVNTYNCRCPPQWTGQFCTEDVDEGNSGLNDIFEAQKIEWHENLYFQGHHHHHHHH
Protocol: (§1) Binding of the anti-Notch2 antibodies to Notch2 from additional species and to constructs comprising different EGF repeat regions was evaluated by BIAcore™. For this experiment, the antibodies with human constant regions were captured on a protein A chip to achieve approximately 200 RU. Ten-fold serial dilutions of various antigens were injected in HIBS-P buffer with additional 3 mM CaCl₂ at 37° C. with a flow rate of 100 μL/min.

[6] = target: T4, huNotch2-EGF5-8 (human); test: SPR BIAcore, antibody captured on protein A, 37 C
T4 chain: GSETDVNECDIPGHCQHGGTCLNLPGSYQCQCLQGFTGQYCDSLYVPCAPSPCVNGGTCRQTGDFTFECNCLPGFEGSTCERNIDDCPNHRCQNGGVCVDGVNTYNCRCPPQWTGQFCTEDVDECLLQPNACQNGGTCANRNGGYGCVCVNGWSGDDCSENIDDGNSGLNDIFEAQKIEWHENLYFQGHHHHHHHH
Protocol: as §1

[7] = target: T5, gpNotch2-EGF6-12 (guinea pig); test: SPR BIAcore, antibody captured on protein A, 37 C
T5 construct: also called guinea pig Notch2 EGF6-12
T5 chain: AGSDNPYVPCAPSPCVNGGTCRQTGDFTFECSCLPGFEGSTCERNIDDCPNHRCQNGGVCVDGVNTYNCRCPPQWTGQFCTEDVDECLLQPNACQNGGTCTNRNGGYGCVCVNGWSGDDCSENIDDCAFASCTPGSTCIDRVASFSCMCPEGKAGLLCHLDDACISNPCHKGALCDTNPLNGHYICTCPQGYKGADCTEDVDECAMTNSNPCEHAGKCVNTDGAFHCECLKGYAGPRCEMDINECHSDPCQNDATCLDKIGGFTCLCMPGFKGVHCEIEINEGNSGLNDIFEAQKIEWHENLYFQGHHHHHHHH
Protocol: as §1

[8] = target: T6, muNotch2-EGF6-12.K268R (mouse); test: SPR BIAcore, antibody captured on protein A, 37 C
T6 chain: T5 chain with N5S, S32N, F129Y, M148L, H183Q, T207A, I278L, I280V
Protocol: as §1

[9] = target: T7, huNotch2-EGF7-9 (human); test: SPR BIAcore, antibody captured on protein A, 37 C
T7 chain: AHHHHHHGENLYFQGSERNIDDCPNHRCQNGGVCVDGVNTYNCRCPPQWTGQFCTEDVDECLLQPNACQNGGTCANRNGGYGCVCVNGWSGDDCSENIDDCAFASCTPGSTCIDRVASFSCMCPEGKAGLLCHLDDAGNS
Protocol: as §1

T1 sequence (Q04721 26-2471): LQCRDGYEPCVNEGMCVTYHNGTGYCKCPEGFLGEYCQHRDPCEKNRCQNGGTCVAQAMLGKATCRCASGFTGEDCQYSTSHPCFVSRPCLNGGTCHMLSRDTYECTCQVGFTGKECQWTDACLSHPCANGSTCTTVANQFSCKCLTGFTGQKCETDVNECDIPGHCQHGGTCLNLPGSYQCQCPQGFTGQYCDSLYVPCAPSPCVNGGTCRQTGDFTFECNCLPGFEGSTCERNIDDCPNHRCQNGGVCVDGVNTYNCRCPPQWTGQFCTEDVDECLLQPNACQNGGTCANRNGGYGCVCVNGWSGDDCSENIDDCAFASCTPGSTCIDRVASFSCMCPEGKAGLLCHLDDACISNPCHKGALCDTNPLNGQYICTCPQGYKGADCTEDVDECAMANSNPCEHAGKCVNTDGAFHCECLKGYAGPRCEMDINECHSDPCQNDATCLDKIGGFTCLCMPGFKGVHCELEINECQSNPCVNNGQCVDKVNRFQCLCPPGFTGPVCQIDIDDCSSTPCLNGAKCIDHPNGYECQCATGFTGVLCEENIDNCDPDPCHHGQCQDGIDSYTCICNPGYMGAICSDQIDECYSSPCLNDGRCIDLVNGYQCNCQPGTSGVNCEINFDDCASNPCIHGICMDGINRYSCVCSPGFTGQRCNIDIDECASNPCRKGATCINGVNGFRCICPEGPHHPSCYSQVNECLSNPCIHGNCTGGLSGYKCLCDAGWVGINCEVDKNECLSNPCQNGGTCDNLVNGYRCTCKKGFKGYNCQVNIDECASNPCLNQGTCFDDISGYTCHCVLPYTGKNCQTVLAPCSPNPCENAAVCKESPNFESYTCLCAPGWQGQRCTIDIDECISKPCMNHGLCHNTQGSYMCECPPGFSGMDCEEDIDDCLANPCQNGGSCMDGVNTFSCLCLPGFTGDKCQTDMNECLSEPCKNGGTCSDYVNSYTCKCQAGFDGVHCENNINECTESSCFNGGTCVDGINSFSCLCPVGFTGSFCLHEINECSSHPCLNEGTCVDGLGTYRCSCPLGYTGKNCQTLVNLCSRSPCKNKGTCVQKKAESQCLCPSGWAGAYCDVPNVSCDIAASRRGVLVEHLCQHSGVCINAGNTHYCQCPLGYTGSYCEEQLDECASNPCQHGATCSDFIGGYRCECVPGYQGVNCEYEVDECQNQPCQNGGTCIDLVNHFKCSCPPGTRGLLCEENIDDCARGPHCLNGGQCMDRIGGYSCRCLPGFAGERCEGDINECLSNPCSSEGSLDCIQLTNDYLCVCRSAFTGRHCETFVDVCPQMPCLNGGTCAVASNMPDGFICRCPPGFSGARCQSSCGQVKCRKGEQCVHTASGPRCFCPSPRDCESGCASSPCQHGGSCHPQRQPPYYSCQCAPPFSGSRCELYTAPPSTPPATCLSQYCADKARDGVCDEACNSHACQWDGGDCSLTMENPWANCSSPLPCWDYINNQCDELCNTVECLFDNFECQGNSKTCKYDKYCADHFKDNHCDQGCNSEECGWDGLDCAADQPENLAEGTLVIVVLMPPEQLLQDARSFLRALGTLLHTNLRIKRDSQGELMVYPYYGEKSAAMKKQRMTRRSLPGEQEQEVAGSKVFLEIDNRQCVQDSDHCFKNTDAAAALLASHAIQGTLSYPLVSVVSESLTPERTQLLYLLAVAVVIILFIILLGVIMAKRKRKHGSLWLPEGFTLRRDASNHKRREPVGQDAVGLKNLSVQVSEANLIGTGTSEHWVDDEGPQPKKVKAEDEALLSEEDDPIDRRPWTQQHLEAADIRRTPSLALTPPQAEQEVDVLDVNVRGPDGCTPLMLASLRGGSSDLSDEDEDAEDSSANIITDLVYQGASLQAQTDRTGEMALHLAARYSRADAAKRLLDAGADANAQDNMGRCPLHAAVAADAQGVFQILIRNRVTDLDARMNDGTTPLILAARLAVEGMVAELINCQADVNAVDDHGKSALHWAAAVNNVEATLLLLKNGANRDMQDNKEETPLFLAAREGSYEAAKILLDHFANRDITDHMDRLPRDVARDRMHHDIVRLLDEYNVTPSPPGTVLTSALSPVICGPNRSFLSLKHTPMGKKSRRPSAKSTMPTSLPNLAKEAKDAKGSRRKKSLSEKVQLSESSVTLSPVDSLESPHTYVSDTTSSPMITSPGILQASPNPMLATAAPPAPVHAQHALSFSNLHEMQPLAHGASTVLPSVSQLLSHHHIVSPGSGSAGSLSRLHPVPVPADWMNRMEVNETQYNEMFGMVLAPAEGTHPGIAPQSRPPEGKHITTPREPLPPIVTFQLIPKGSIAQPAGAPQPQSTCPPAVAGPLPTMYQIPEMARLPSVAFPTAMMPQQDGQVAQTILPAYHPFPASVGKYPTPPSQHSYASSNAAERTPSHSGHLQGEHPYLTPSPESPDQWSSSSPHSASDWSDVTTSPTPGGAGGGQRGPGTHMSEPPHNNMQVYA

B3: 1B2.v104.huFab.LC_K149C.dPEG_trimer (other)
heavy: EVQLVESGGGLVQPGGSLKLSCAVSGFTFSDFYMEWVRQASGKGLEWVAAQRNKANDFSIVYSASVKDRFTISRDDSKSTLYLQMNSLKTEDTAVYYCSRDGGKLALDAWGQGTLVTVSSASTKGPSVFPLAPSSKSTSGGTAALGCLVKDYFPEPVTVSWNSGALTSGVHTFPAVLQSSGLYSLSSVVTVPSSSLGTQTYICNVNHKPSNTKVDKKVEPKSCD
light: DIQMTQSPSSVSASVGDRVTITCQTSEDIYSGLAWYQQKPGKSPKLLIYGASRLQDGVPSRFSGSGSGTDYTLTISSLQPEDFATYYCQQGFKYPLTFGGGTKVEIKRTVAAPSVFIFPPSDEQLKSGTASVVCLLNNFYPREAKVQWCVDNALQSGNSQESVTEQDSKDSTYSLSSTLTLSKADYEKHKVYACEVTHQGLSSPVTKSFNRGEC
modifications: engineered Cys (K149C) joined through maleimide to Tri(Mal-PEG2-amide)-amine
notes: also called 1B2.v104 Fab trimer; aN2.1B2.Fab-trimer
- Kd [3]: 0.0335 nM
- DLL Inhibition (IC50) [4]: > 700 nM
- Jag1 Inhibition (IC50) [4]: 0.5 nM

B4: rb.2621 (rabbit/human chimeric anti-Notch2 antibody 2621) (antibody, V domains shown)
VH: QSLEESGGGLVQPGASLTLTCTASGFSFSSGYDMCWVRQAPGKGLEWIACIVTVSGNTYYASWAKGRFTISKTSSTTVTLQMTSLTAADTATYFCARDGGFTDTWYFHLWGPGTLVTVSS
VL: AYDMTQTPASVEVAVGGTVTIKCQASESIGSYLAWYQQKPGQPPKLLIYRASTLASGVPSRFKGSGSGTEFTLTISGVQCDDAATYYCQQTYSGAGVDNLFGGGTKVEIK
- Jagged1 IC50 [1]: 0.667 nM

B5: hu1B2.L1H1.DFS (antibody, V domains shown)
VH: EVQLVESGGGLVQPGGSLKLSCAVSGFTFSDFYMEWIRQASGKGLEWIAASRNKANDFSIVYSASVKDRFTISRDTSKSTLYLQMNSLKTEDTAVYYCSRDSGRWGLDAWGQGTLVTVSS
VL: DIQMTQSPSSVSASVGDRVTITCQTSEDIYSGLAWYQQKPGKSPKLLIYGASRLQDGVPSRFSGSGSGTDYTLTISSLQPEDFATYFCQQGFKYPLTFGGGTKVEIK
notes: Human IgG1 backbone; also called hu1B2.v1.DFS
- Jagged1 IC50 [1]: 7.9 nM
- Kd [2]: 5.15 nM
- koff [2]: 0.00116 s⁻¹
- kon [2]: 226000 M⁻¹ s⁻¹

B7: 1B2.v104.huFab.LC_K149C.MMTS_capped (Fab, V domains shown)
VH: B5 VH with I37V, I48V, S51Q, T76D, S102G, R104K, W105L, G106A
VL: DIQMTQSPSSVSASVGDRVTITCQTSEDIYSGLAWYQQKPGKSPKLLIYGASRLQDGVPSRFSGSGSGTDYTLTISSLQPEDFATYYCQQGFKYPLTFGGGTKVEIKR
modifications: engineered Cys (K149C) capped with MMTS
notes: Monovalent Fab used in the KinExA experiments; also called Monovalent Fab
- Kd [3]: 1.98 nM

B8: 1B2.v104.huIgG1.N297G (antibody, V domains shown)
VH: B5 VH with I37V, I48V, S51Q, T76D, S102G, R104K, W105L, G106A
VL: B5 VL with F87Y
notes: Human IgG1 with N297G; also called Bivalent IgG antibody; 1B2.v104 IgG
- Kd [3]: 0.0353 nM

B9: hu1B2.v102 (antibody, V domains shown)
VH: B5 VH with I37V, I48V, S51Q, T76D, S102G, W105L, G106A
VL: B5 VL with F87Y
notes: Human IgG1 backbone
- Jagged1 IC50 [1]: 1.59 nM
- Kd [2]: 3.37 nM
- koff [2]: 0.00131 s⁻¹
- kon [2]: 387000 M⁻¹ s⁻¹
- binding result [5]: binds
- binding result [6]: binds
- binding result [7]: binds
- binding result [8]: binds
- binding result [9]: binds

B11: rb.2430 (rabbit/human chimeric anti-Notch2 antibody 2430) (antibody, V domains shown)
VH: QSVEESGGRLVTPGTPLTLTCTVSGFSLSSYDMSWVRQAPGKGLEWIGIIQAGSNTLFYASWAKGRFTISKTSTTVDLKITSPTTEDTATYFCARGGVIFIIGHFNLWGPGTLVTVSS
VL: AQVLTQTASSVSAAVGGTVTINCQASQSVVNNRLAWYQQKPGQPPKLLMYGASTLESGVSSRFKGSGSGTQFTLTISGVQCDDAATYYCQGEFLCSSGDCVAFGGGTKVEIK
- Jagged1 IC50 [1]: 1.03 nM

Next, values leading:

- Jagged1 IC50 [1]: 3.53 nM
B1: rb.2338 (rabbit/human chimeric anti-Notch2 antibody 2338) (antibody, V domains shown)
VH: QSLEESGGDLVKPGASLTLTCTASGFSFSSGYDMCWVRQAPGKGLEWIACIYAGSEGFTYYASWAKGRFTISKSSSTTVTLQMTSLTVADTATYFCARWTDSDGSNLWGPGTLVTVSS
VL: DVVMTQTPASVEAAVGGTVTIKCQASQSISSYLAWYQQKPGQPPKLLIYRASKLASGVPSRFSGRGSGTQFTLTISDLECADAATYYCQSNSYGNNWVGGFGGGTKVEIK

- Jagged1 IC50 [1]: 12.5 nM
- Kd [2]: 5.21 nM
- koff [2]: 0.000943 s⁻¹
- kon [2]: 181000 M⁻¹ s⁻¹
B2: rat.1B2 (rat/human chimeric anti-Notch2 antibody 1B2) (antibody, V domains shown)
VH: EVKLVDYGGGLVQPGASLRLSCEVSGFTFSDFYMEWIRQAPGKGLEWIAASRNKANNFSIVYSASVKDRFTISRDTYKSILYLQMSTLKPEDTAVYYCSRDSGRWGLDAWGQGTSVIVSS
VL: DIQMTQSPASLSASLGETVTIQCQTSEDIYSGLAWYHQKPGKSPQLLIYGASRLQDGVPSRFTGSGSGTQYSLKISSMQTEDEGVYFCQQGFKYPLTFGSGTKLEIK
notes: also called 1B2 Chimeric; chimeric 1B2

- Kd [3]: 0.195 nM
B6: 1B2.v104.Fab-huIgG1.N297G (antibody, V domains shown)
VH: B5 VH with I37V, I48V, S51Q, T76D, S102G, R104K, W105L, G106A
VL: B5 VL with F87Y
notes: Tetravalent Fab-IgG format, human IgG1 N297G; also called Tetravalent Fab-IgG; 1B2.v104 Fab-IgG

- Jagged1 IC50 [1]: 2.48 nM
- Kd [2]: 3.09 nM
- koff [2]: 0.0011 s⁻¹
- kon [2]: 357000 M⁻¹ s⁻¹
- binding result [5]: binds
- binding result [6]: binds
- binding result [7]: binds
- binding result [8]: binds
- binding result [9]: binds
B10: hu1B2.v104 (antibody, V domains shown)
VH: B5 VH with I37V, I48V, S51Q, T76D, S102G, R104K, W105L, G106A
VL: B5 VL with F87Y
notes: Human IgG1 backbone; also called hu1B2.v014

Reference: patent publication US20230322958A1 (Genentech, published 2023)
